Data published in US20170232076A1.

B1: Naglu-CREG fusion protein (produced in HT-1080 cells) (enzyme)
chain: DEAREAAAVRALVARLLGPGPAADFSVSVERALAAKPGLDTYSLGGGGAARVRVRGSTGVAAAAGLHRYLRDFCGCHVAWSGSQLRLPRPLPAVPGELTEATPNRYRYYQNVCTQSYSFVWWDWARWEREIDWMALNGINLALAWSGQEAIWQRVYLALGLTQAEINEFFTGPAFLAWGRMGNLHTWDGPLPPSWHIKQLYLQHRVLDQMRSFGMTPVLPAFAGHVPEAVTRVFPQVNVTKMGSWGHFNCSYSCSFLLAPEDPIFPIIGSLFLRELIKEFGTDHIYGADTFNEMQPPSSEPSYLAAATTAVYEAMTAVDTEAVWLLQGWLFQHQPQFWGPAQIRAVLGAVPRGRLLVLDLFAESQPVYTRTASFQGQPFIWCMLHNFGGNHGLFGALEAVNGGPEAARLFPNSTMVGTGMAPEGISQNEVVYSLMAELGWRKDPVPDLAAWVTSFAARRYGVSHPDAGAAWRLLLRSVYNCSGEACRGHNRSPLVRRPSLQMNTSIWYNRSDVFEAWRLLLTSAPSLATSPAFRYDLLDLTRQAVQELVSLYYEEARSAYLSKELASLLRAGGVLAYELLPALDEVLASDSRFLLGSWLEQARAAAVSEAEADFYEQNSRYQLTLWGPEGNILDYANKQLAGLVANYYTPRWRLFLEALVDSVAQGIPFQQHQFDKNVFQLEQAFVLSKQRYPSQPRGDTVDLAKKIFLKYYPRWVAGSWGAPGGGGGAAAAAGGGGGGAPGGGGGAAAAAGGGGGGAPGGGGGAAAAAGGGGGGAPRGGRDHGDWDEASRLPPLPPREDAARVARFVTHVSDWGALATISTLEAVRGRPFADVLSLSDGPPGAGSGVPYFYLSPLQLSVSNLQENPYATLTMTLAQTNFCKKHGFPLCVHIMLSGTVTKVNETEMDIAKHSLFIRHPEMKTWPSSHNWFFAKLNITNIWVLDYFGGPKIVTPEEYYNVTVQ
modifications: N-linked glycosylation sites in the CREG part marked (N); binding is M6P-dependent
B2: Naglu-CREG fusion protein produced in HT-1080 cells overexpressing GNPT (enzyme)
chain: DEAREAAAVRALVARLLGPGPAADFSVSVERALAAKPGLDTYSLGGGGAARVRVRGSTGVAAAAGLHRYLRDFCGCHVAWSGSQLRLPRPLPAVPGELTEATPNRYRYYQNVCTQSYSFVWWDWARWEREIDWMALNGINLALAWSGQEAIWQRVYLALGLTQAEINEFFTGPAFLAWGRMGNLHTWDGPLPPSWHIKQLYLQHRVLDQMRSFGMTPVLPAFAGHVPEAVTRVFPQVNVTKMGSWGHFNCSYSCSFLLAPEDPIFPIIGSLFLRELIKEFGTDHIYGADTFNEMQPPSSEPSYLAAATTAVYEAMTAVDTEAVWLLQGWLFQHQPQFWGPAQIRAVLGAVPRGRLLVLDLFAESQPVYTRTASFQGQPFIWCMLHNFGGNHGLFGALEAVNGGPEAARLFPNSTMVGTGMAPEGISQNEVVYSLMAELGWRKDPVPDLAAWVTSFAARRYGVSHPDAGAAWRLLLRSVYNCSGEACRGHNRSPLVRRPSLQMNTSIWYNRSDVFEAWRLLLTSAPSLATSPAFRYDLLDLTRQAVQELVSLYYEEARSAYLSKELASLLRAGGVLAYELLPALDEVLASDSRFLLGSWLEQARAAAVSEAEADFYEQNSRYQLTLWGPEGNILDYANKQLAGLVANYYTPRWRLFLEALVDSVAQGIPFQQHQFDKNVFQLEQAFVLSKQRYPSQPRGDTVDLAKKIFLKYYPRWVAGSWGAPGGGGGAAAAAGGGGGGAPGGGGGAAAAAGGGGGGAPGGGGGAAAAAGGGGGGAPRGGRDHGDWDEASRLPPLPPREDAARVARFVTHVSDWGALATISTLEAVRGRPFADVLSLSDGPPGAGSGVPYFYLSPLQLSVSNLQENPYATLTMTLAQTNFCKKHGFPLCVHIMLSGTVTKVNETEMDIAKHSLFIRHPEMKTWPSSHNWFFAKLNITNIWVLDYFGGPKIVTPEEYYNVTVQ
modifications: increased M6P on N-linked glycans (co-expression with GNPT)
B3: Naglu-SapDC fusion protein (produced in HT-1080 cells) (enzyme)
chain: DEAREAAAVRALVARLLGPGPAADFSVSVERALAAKPGLDTYSLGGGGAARVRVRGSTGVAAAAGLHRYLRDFCGCHVAWSGSQLRLPRPLPAVPGELTEATPNRYRYYQNVCTQSYSFVWWDWARWEREIDWMALNGINLALAWSGQEAIWQRVYLALGLTQAEINEFFTGPAFLAWGRMGNLHTWDGPLPPSWHIKQLYLQHRVLDQMRSFGMTPVLPAFAGHVPEAVTRVFPQVNVTKMGSWGHFNCSYSCSFLLAPEDPIFPIIGSLFLRELIKEFGTDHIYGADTFNEMQPPSSEPSYLAAATTAVYEAMTAVDTEAVWLLQGWLFQHQPQFWGPAQIRAVLGAVPRGRLLVLDLFAESQPVYTRTASFQGQPFIWCMLHNFGGNHGLFGALEAVNGGPEAARLFPNSTMVGTGMAPEGISQNEVVYSLMAELGWRKDPVPDLAAWVTSFAARRYGVSHPDAGAAWRLLLRSVYNCSGEACRGHNRSPLVRRPSLQMNTSIWYNRSDVFEAWRLLLTSAPSLATSPAFRYDLLDLTRQAVQELVSLYYEEARSAYLSKELASLLRAGGVLAYELLPALDEVLASDSRFLLGSWLEQARAAAVSEAEADFYEQNSRYQLTLWGPEGNILDYANKQLAGLVANYYTPRWRLFLEALVDSVAQGIPFQQHQFDKNVFQLEQAFVLSKQRYPSQPRGDTVDLAKKIFLKYYPRWVAGSWGAPGGGGGAAAAAGGGGGGAPGGGGGAAAAAGGGGGGAPGGGGGAAAAAGGGGGGAPDGGFCEVCKKLVGYLDRNLEKNSTKQEILAALEKGCSFLPDPYQKQCDQFVAEYEPVLIEILVEVMDPSFVCLKIGACPSAHKPLLGTEKCIWGPSYWCQNTETAAQCNAVEHCKRHVWN
modifications: N-linked glycosylation site in the SapDC part marked (N); M6P content 0.75 mol/mol (M6P/Protein)
B4: Naglu-SapDC fusion protein produced in HT-1080 cells overexpressing GNPT (enzyme)
chain: DEAREAAAVRALVARLLGPGPAADFSVSVERALAAKPGLDTYSLGGGGAARVRVRGSTGVAAAAGLHRYLRDFCGCHVAWSGSQLRLPRPLPAVPGELTEATPNRYRYYQNVCTQSYSFVWWDWARWEREIDWMALNGINLALAWSGQEAIWQRVYLALGLTQAEINEFFTGPAFLAWGRMGNLHTWDGPLPPSWHIKQLYLQHRVLDQMRSFGMTPVLPAFAGHVPEAVTRVFPQVNVTKMGSWGHFNCSYSCSFLLAPEDPIFPIIGSLFLRELIKEFGTDHIYGADTFNEMQPPSSEPSYLAAATTAVYEAMTAVDTEAVWLLQGWLFQHQPQFWGPAQIRAVLGAVPRGRLLVLDLFAESQPVYTRTASFQGQPFIWCMLHNFGGNHGLFGALEAVNGGPEAARLFPNSTMVGTGMAPEGISQNEVVYSLMAELGWRKDPVPDLAAWVTSFAARRYGVSHPDAGAAWRLLLRSVYNCSGEACRGHNRSPLVRRPSLQMNTSIWYNRSDVFEAWRLLLTSAPSLATSPAFRYDLLDLTRQAVQELVSLYYEEARSAYLSKELASLLRAGGVLAYELLPALDEVLASDSRFLLGSWLEQARAAAVSEAEADFYEQNSRYQLTLWGPEGNILDYANKQLAGLVANYYTPRWRLFLEALVDSVAQGIPFQQHQFDKNVFQLEQAFVLSKQRYPSQPRGDTVDLAKKIFLKYYPRWVAGSWGAPGGGGGAAAAAGGGGGGAPGGGGGAAAAAGGGGGGAPGGGGGAAAAAGGGGGGAPDGGFCEVCKKLVGYLDRNLEKNSTKQEILAALEKGCSFLPDPYQKQCDQFVAEYEPVLIEILVEVMDPSFVCLKIGACPSAHKPLLGTEKCIWGPSYWCQNTETAAQCNAVEHCKRHVWN
modifications: increased M6P on N-linked glycans; M6P content 1.84 mol/mol (M6P/Protein)

Columns and labels:
[1] = target: cation-independent mannose-6-phosphate receptor (CI-M6PR), as used in the in vitro receptor binding assay (ELISA); assay: ELISA, CI-M6PR binding, detection with antibody to human Naglu
[2] = target: cation-independent mannose-6-phosphate receptor (CI-M6PR), as used in the in vitro receptor binding assay (ELISA); assay: in vitro CI-M6PR binding assay
[3] = target: cation-independent mannose-6-phosphate receptor (CI-M6PR) on cells overexpressing CI-M6PR; assay: cellular uptake assay on cells overexpressing CI-M6PR, intracellular Naglu activity read-out

Binder	Kd [1] [nM]	Kd [2] [nM]	Kd [3] [nM]	fold higher affinity than Naglu-SapDC produced in cells expressing Naglu-SapDC alone [3] [fold]
B1	1.25	2.5		
B2		0.41		
B3	5.5	2.9	209	
B4		0.23	14.9	14
